Experimental findings from article PMC4975523 are described below.

This assay has as its target CBLB (UniProt Q3TTA7). The assay can be described thus: anti-CBLB IP, dectin-1 blot. As to conditions: reference: wild-type Flag-dectin-1; sites Y15.

For the substance “dectin-1 (from UniProt Q6QLQ4) Flag-dectin-1 Y15F”, the “binding against the reference” value is listed as “lost”.
